Experimental data: patent publication US20020019040A1 (LEADD B V, published 2002)

B1: GAL4-activation domain fusion of the AAP-3 cDNA clone (pACT) (other)
chain: HEGPMVGGGGVGGGLLENANPLIYQRSGERPVTAGEEDEQVPDSIDAREIFDLIRSINDPEHPLTLEELNVVEQVRVQVSDPESTVAVAFTPTIPHCSMATLIGLSIKVKLLRSLPQRFKMDVHITPGTHASEHAVNKQLADKERVAAALENTHLLEVVNQCLSARS
notes: Yeast two-hybrid prey; also called Apoptin-associating clone AAP-3
B2: GAL4-activation domain of the empty pACT vector (other)
chain: ANFNQSGNIADSSLSFTFTNSSNGPNLITTQTNSQALSQPIASSNVHDNFMNNEITASKIDDGNNSKPLSPGWTDQTAYNAFGITTGMFNTTTMDDVYNYLFDDEDTPPNPKKE
notes: Negative control of the yeast two-hybrid system

Tests used:
[1] = molecular target: T1, fusion gene product of GAL4-DNA-binding domain and Apoptin (bait plasmid pGBT-VP3) (chicken anemia virus, UniProt P04386 1-147; Q99152 1-121); assay: yeast two-hybrid
T1 construct: Yeast two-hybrid bait, expressed in yeast strain Y190; also called pGBT9-VP3; not shown: residues encoded by the EcoRI-NdeI linker

[2] = molecular target: T1, fusion gene product of GAL4-DNA-binding …; assay: yeast two-hybrid control (HIS3 and LacZ reporters)

| Binder | binding result [1] | binding result [2] |
| --- | --- | --- |
| B1 | binds | – |
| B2 | – | no binding |
